Patent US20140120109A1 (Regeneron, published 2014)

Columns and labels:
[1] = target: T1, human TL1A, soluble, CHO-expressed, residues 72-251 of SEQ ID NO:244 with N-terminal His6-tag (human, UniProt O95150 72-251); assay: ELISA, blocks hTL1A (10 pM) binding hDcR3-Fc
T1 construct: also called hTL1A; hTL1A (CHO)
T1 sequence: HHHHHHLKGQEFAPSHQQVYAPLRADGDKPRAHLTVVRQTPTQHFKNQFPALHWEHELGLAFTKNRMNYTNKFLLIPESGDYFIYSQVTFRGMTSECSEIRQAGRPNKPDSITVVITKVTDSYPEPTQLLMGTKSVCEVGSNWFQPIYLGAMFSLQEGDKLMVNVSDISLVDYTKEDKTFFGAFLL
Method in brief: (§1)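 Competition sandwich ELISA: biotinylated CHO-expressed ligand (human TL1A, FHM Q167R variant, or cynomolgus TL1A) at fixed concentration preincubated with titrated antibody 1 h at 25 °C, then 1 h on hDR3-Fc or hDcR3-Fc coated wells. Bound ligand detected by streptavidin-HRP/TMB at 450 nm; sigmoidal dose-response fit.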

[2] = target: T1, human TL1A, soluble, CHO-expressed, …; assay: ELISA, blocks hTL1A (150 pM) binding hDR3-Fc
Method in brief: as §1

[3] = target: T1, human TL1A, soluble, CHO-expressed, …; assay: cell-based or functional assay
[4] = target: T2, cynomolgus monkey TL1A, soluble, CHO-expressed, residues 72-251 of SEQ ID NO:248 with N-terminal His6-tag (cynomolgus monkey (Macaca fascicularis), UniProt O95150 72-251 (human entry)); assay: cell-based or functional assay
T2 chain: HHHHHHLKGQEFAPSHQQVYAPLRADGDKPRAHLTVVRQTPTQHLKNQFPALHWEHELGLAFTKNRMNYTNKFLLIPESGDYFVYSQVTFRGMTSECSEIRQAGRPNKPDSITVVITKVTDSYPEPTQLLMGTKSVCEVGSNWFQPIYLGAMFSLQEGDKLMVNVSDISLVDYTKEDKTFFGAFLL

[5] = target: T3, human TL1A, soluble, E. coli-expressed, residues 72-251 of SEQ ID NO:244 (human, UniProt O95150 72-251); assay: cell-based or functional assay
T3 sequence: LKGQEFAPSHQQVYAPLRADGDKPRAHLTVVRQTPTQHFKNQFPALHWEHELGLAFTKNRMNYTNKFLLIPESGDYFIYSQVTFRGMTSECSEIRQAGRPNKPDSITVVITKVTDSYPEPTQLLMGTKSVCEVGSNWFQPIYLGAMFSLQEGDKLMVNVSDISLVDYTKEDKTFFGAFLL

[6] = target: T4, cynomolgus monkey TL1A, soluble, E. coli-expressed, residues 72-251 of SEQ ID NO:248 (cynomolgus monkey (Macaca fascicularis), UniProt O95150 72-251 (human entry)); assay: cell-based or functional assay
T4 chain: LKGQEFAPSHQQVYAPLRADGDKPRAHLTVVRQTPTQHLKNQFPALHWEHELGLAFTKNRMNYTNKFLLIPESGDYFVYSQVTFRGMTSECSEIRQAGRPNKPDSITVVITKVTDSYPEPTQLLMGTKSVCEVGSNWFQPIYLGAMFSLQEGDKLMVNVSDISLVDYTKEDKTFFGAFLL

[7] = target: T1, human TL1A, soluble, CHO-expressed, …; assay: cell-based or functional assay; remark: listed apart in the source
[8] = target: T2, cynomolgus monkey TL1A, soluble, …; assay: ELISA, blocks MfTL1A (50 pM) binding hDcR3-Fc
Method in brief: as §1

[9] = target: T5, rat TL1A, soluble, CHO-expressed, residues 76-252 of SEQ ID NO:258 with N-terminal His6-tag (rat, UniProt Q8K3Y7 76-252); assay: SPR 25C, mAb captured
T5 construct: also called rTL1A; rTL1A (CHO)
T5 sequence: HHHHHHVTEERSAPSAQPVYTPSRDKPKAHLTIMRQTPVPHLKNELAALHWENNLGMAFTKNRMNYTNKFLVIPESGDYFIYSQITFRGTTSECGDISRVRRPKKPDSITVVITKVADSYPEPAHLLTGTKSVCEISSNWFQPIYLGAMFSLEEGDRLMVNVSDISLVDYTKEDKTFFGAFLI
Method in brief: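 Biacore T100 SPR with captured mAb and soluble TL1A/Fhm analyte; ka and kd fitted to a 1:1 model assuming monomeric TL1A. KD = kd/ka; t1/2 (min) = ln2/(60·kd).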

| Binder | IC50 [1] | IC50 [2] | Average % Blocking IFN-g, 3 ug/ml mAb [3] | IC50, NFkB-luciferase reporter [4] | IC50, NFkB-luciferase reporter [5] | IC50, NFkB-luciferase reporter [6] | IC50, NFkB-luciferase reporter [7] | IC50 [8] | Kd [9] | t1/2 [9] | binding result [9] |
| --- | --- | --- | --- | --- | --- | --- | --- | --- | --- | --- | --- |
| H4H1818N (antibody, human IgG4 S228P, V domains shown, human IgG4(S108P) form of H2M1818N) VH: RLQLVESGGGLVKPGGSLKLSCAASGFTISDYYMSWIRQAPGKGLEWVSYIGGSGSTIYYADSVKGRFTISRDNAKNSLYLQMNSLRAEDTAVYYCAREDADSYYYYGMDVWGQGTTVTVSS VL: not shown | 232 pM | 119 pM | 71% | 130 pM | 290 pM | 60 pM | 370 pM | 1100 pM | 88 pM | 92 min |  |
| H4H1725P (antibody, human IgG4 S228P, V domains shown) VH: QVQLVQSGAEVKKPGASVKVSCKASGYTFTGYYMHWVRQAPGQGLEWMGWIKPKSGGTNYVQKFQGRVTMTRDTSINTAYMELNNLKSDDTAVYYCATGGSQDASDFWGQGTMVTVSS VL: DIQMTQSPSSVSASVGGRVTITCRASQDISIWLAWYQQKPGKAPNLLIYAASSLQSGVPSRFSGSGSGTDFTLTISSLQPEDFATYYCQQADSFPLTFGGGTKVEIK | 68 pM | 15 pM | 94% | 10 pM | 20 pM | 20 pM | 50 pM | 145 pM | 317 pM | 26 min |  |
| H4H1738P (antibody, human IgG4 S228P, V domains shown) VH: EVQLVESGGALVKPGGSLRLSCAVSGFTFINDWMNWVRQAPGKGLEWVGRIKSTTDGGTTDDAAPVKGRFTISRDDSKNTLYLQMNSLKTEDTAVYYCTRDRNRQRNYFYDGMDVWGQGTTVTVSA VL: DIVMTQSPVSLPVTPGEPASISCRSSQRLLHNNGNNYLDWYLQKPGQSPQLLIYLGSNRASGVPDRFSGSGSGTDFTLKVSRVEAEDVGVYYCMQALQTPYTFGQGTKLEIK | 122 pM | 69 pM | 81% | 390 pM | 160 pM | 70 pM | 390 pM | 68 pM |  |  | no binding (tested: up to 100 nM) |
| H4H1742P (antibody, human IgG4 S228P, V domains shown) VH: EVQLVESGGGLVQPGGSLRLSCAASGFTFSNYVMNWVRQAPGKGLEWVSVISGSGGSTHYADSVKGRFTISRDNSKDALYLQMNSLRAEDTAVYYCAKGPLEAYYYYNGMDVWGQGTTVTVSS VL: DIQLTQSPSFLSASVGDRVTITCWASQAISSYLAWYQHKPGRAPKLLIYSTSTLQSGVPSRFSGSGSGTEFTLTISSLQPEDFATYYCQQLNSYPTFGQGTKLEIK | 181 pM | 64 pM | 83% | 260 pM | 190 pM | 70 pM | 310 pM | 127 pM | 78 pM | 144 min |  |

Now those with a lower IC50 [1], led by results:

| IC50 [1] | IC50 [2] | Average % Blocking IFN-g, 3 ug/ml mAb [3] | IC50, NFkB-luciferase reporter [4] | IC50, NFkB-luciferase reporter [5] | IC50, NFkB-luciferase reporter [6] | IC50, NFkB-luciferase reporter [7] | IC50 [8] | Kd [9] | t1/2 [9] | binding result [9] | Binder |
| --- | --- | --- | --- | --- | --- | --- | --- | --- | --- | --- | --- |
| 58 pM | 18 pM | 91% | 50 pM | 60 pM | 30 pM | 90 pM | 118 pM | 2700 pM | 4 min |  | H4H1745P (antibody, human IgG4 S228P, V domains shown) VH: EVQLVESGGGLVQPGGSLRLSCAASGFTFSSYAMTWVRQAPGKGLEWVSGVSGRGGSTYYADSVKGRFTISRDNSKNTLYLQMNSLRAEDTAVYYCAYWDISSFDYWGQGTLVTVSS VL: DIQLTQSPSFLSASVGDRVTITCWASQGISTYLAWYQQKPGKTPKLLIYAASTLQSGVPSRFSGSGSGTDFTLTISSLQPEDFATYYCQQFNSYPLTFGGGTKVEIK |
| 44 pM | 22 pM | 78% | 10 pM | 20 pM | 20 pM | 60 pM | 61 pM | 364 pM | 38 min |  | H4H1719P (antibody, human IgG4 S228P, V domains shown) VH: EVQLVESGGGLVQPGRSLRLSCVASGFTFQDYAMHWVRQAPGKGLEWVSGINWISDDMGYADSVMGRFTISRDNAKNSLYLQMDSLRAEDTALYYCAKDKGLRFLDYVMDVWGQGTTVTVSA VL: DIVMTQSPLSLPVTPGEPASISCRSTQSLLHRNGHNYLHWYLHKPGQSPQLLIHLGSNRASGVPDRFSGSGSGTDFTLKISRVEAEDVGVYYCMQALQTPYTFGQGTKLEIK |
